This test concerns the target T1, γ-secretase cleavage of APP-C99 (CHAPS extracts of HeLa cell membranes) (Homo sapiens, UniProt P49768).
T1 construct: CHAPS extracts of HeLa cell membranes were incubated with the APP-C99flag-tagged substrate; endogenous in cells; host or cells: HeLa cell membranes (CHAPS extract)
Put plainly: cell-free assay of in vitro production of amyloid peptides (Aβ) from APP-C99flag-tagged substrate, SDS-PAGE/western blotting. The following applies: CHAPS extracts of HeLa cell membranes incubated with APP-C99flag-tagged substrate plus peptide; DMSO control; western blot with antibody recognizing Aβ (FIG. 6). In kind it is biochemical. From the text: FIG. 6: Peptides that mimic the binding domains in PS1 or APP inhibit the in vitro production of amyloid peptides (Aβ). The PS1-APP binding is mediated by the C-terminus of PS1 (and the first transmembrane domain of PS1) and part of the APP transmembrane region downstream of the γ-secretase cleavage site (and bearing the FAD-associated mutations affecting the γ-secretase cleavage). Peptides mimicking these domains were synthesized as such or with a conserved transmembrane region (TMR) or palmityol group (palm) attached to it. The amino acid sequence of the transmembrane region is NH2-[…]-COOH (SEQ ID NO:20) and the origin of the TMR is fully described in PCT International Publication WO 02/00882. CHAPS extracts of HeLa cell membranes were incubated with the APP-C99flag-tagged substrate in the presence of DMSO (control) or the different peptides at the concentrations indicated (peptide). γ-secretase inhibitor (10 μM) was included as a positive control for Aβ inhibition. After the reaction, samples were analyzed by SDS-PAGE followed by western blotting using an antibody recognizing Aβ. […]
Fixed amounts of recombinant APP-C99 are mixed with cleared cell extracts (for example extracted with Triton X100, CHAPS, CHAPSO or Nonidet p40) and incubated overnight at 37° C. or 4° C. De novo formed Aβ is monitored by SDS/PAGE combined with western blotting. […]

T1 sequence (Q96BI3 whole entry, other chains not shown): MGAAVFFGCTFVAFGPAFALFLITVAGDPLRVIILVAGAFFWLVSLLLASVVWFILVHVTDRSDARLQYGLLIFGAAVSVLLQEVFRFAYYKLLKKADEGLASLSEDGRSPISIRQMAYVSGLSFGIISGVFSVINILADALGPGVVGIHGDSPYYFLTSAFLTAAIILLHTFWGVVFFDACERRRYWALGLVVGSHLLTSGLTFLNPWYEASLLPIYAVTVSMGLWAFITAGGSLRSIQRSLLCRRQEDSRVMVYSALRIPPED
T1 sequence (Q92542 34-709, other chains not shown, further chain): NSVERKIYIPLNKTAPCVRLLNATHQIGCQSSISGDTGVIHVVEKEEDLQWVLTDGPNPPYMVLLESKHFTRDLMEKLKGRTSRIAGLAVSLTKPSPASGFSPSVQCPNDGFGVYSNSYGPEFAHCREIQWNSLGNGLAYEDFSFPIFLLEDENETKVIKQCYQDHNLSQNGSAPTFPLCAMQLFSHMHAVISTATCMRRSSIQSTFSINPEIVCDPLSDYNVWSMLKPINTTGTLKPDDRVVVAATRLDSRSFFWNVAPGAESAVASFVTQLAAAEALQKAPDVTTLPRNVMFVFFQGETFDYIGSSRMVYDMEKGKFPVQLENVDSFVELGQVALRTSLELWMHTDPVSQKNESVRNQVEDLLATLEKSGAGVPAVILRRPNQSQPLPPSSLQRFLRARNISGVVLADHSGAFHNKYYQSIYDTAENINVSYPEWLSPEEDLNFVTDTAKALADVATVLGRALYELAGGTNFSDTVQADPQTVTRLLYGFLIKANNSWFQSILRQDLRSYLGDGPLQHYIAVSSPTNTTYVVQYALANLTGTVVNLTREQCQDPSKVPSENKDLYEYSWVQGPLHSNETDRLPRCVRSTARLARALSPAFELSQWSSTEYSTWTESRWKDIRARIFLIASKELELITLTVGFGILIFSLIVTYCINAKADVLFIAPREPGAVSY
T1 sequence (Q9NZ42 whole entry, other chains not shown, further chain): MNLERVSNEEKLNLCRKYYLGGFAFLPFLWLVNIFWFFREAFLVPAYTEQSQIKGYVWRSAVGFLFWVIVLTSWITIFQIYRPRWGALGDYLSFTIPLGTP

“NH2-ATVIVITLVMLK KKQ-TMR-COOH [SEQ ID NO:12]”: the “inhibition of in vitro Aβ production” value is “highest inhibition”.
“NH2-VVIATVIVITLVMLKKKQ-TMR-COOH [SEQ ID NO:7]”: the “inhibition of in vitro Aβ production” value is “highest inhibition”.

For the origin of these results see patent publication US7198903B2, “Binding domains between presenilins and their substrates as targets for drug screening” (Vlaams Interuniversitair Instituut voor Biotechnologie VZW, priority 2001, dated 2007).
